The record followed here is patent publication US20240116985A1, “STAPLED PEPTIDES AND METHODS THEREOF” (priority 2020, published 2024).

Starred links: 1 amine or outer side, 2 acyl side, 3 side chain; linkers in the order of their positions; H or OH if unused. Positions of bridges follow the written chain, without caps; N, C: chain ends. Non-standard residues stand in square brackets, D forms with d. Primed or numbered codes have the meaning given here. No end group written: not given here. *: point of attachment. PyrS2″ = (S)-3-amino-1-((pent-4-en-1-yloxy)carbonyl)pyrrolidine-3-carboxylic acid (stapling residue), C=CCCCOC(=O)N1CC[C@@](N[*:1])(C(=O)[*:2])C1; B5(30) = 2-amino-2-(pent-4-en-1-yl)hept-6-enoic acid (2,2-bis(4-pentenyl)glycine, stitching residue), C=CCCCC(CCCC=C)(N[*:1])C(=O)[*:2]; B5(4) = 2,2-bis(4-pentenyl)glycine = 2-amino-2-(pent-4-en-1-yl)hept-6-enoic acid (stitching residue), C=CCCCC(CCCC=C)(N[*:1])C(=O)[*:2]; B5(5) = 2,2-bis(4-pentenyl)glycine, 2-amino-2-(pent-4-en-1-yl)hept-6-enoic acid (stitching residue), C=CCCCC(CCCC=C)(N[*:1])C(=O)[*:2]; TfeGA = (S)-2-amino-3-((carboxymethyl)(2,2,2-trifluoroethyl)amino)propanoic acid, O=C([C@H](CN(CC(=O)[*:3])CC(F)(F)F)N[*:1])[*:2]; PyrS2 = (S)-3-amino-1-((pent-4-en-1-yloxy)carbonyl)pyrrolidine-3-carboxylic acid, C=CCCCOC(=O)N1CC[C@@](N[*:1])(C(=O)[*:2])C1; B5(3) = 2,2-bis(4-pentenyl)glycine (stitching residue), C=CCCCC(CCCC=C)(N[*:1])C(=O)[*:2]; B5 = 2-amino-2-(pent-4-en-1-yl)hept-6-enoic acid, C=CCCCC(CCCC=C)(N[*:1])C(=O)[*:2]; ProSAm3 = (allylsulfonyl)-D-proline, C=CCS(=O)(=O)N1CCC[C@@H]1C(=O)*; Phe(3-Ph) = N[C@@H](Cc1cccc(-c2ccccc2)c1)C(=O)O; Phe(3-COOH) = N[C@@H](Cc1cccc(C(=O)O)c1)C(=O)O; Phe(2-CF3) = N[C@@H](Cc1ccccc1C(F)(F)F)C(=O)O; Asp(3,3-Me2) = CC(C)(C(=O)O)[C@H](N)C(=O)O; Asp(3R-OH) = N[C@H](C(=O)O)[C@@H](O)C(=O)O; Phe(2-Cl) = N[C@@H](Cc1ccccc1Cl)C(=O)O; Phe(3-F) = N[C@@H](Cc1cccc(F)c1)C(=O)O; Phe(4-F) = N[C@@H](Cc1ccc(F)cc1)C(=O)O; Bta = N[C@@H](Cc1csc2ccccc12)C(=O)O; Lys(iPr) = CC(C)NCCCC[C@H](N)C(=O)O; αAllylPro = C=CC[C@@]1(C(=O)O)CCCN1; Azidoacetyl = [N-]=[N+]=NCC(=O)*; tBuAla = CC(C)(C)C[C@H](N)C(=O)O; 3Thi = N[C@@H](Cc1ccsc1)C(=O)O; hSer = N[C@@H](CCO)C(=O)O; 2F3MeF″ = Phe derivative; Ac3c = NC1(C(=O)O)CC1; ClAc = O=C(CCl)*

Assay [1] concerns the target full-length beta-Catenin (Uniprot ID P35222) (Homo sapiens (Human)) (UniProt P35222). Nature of the assay: fluorescence polarization competition vs 5FAM-TCF4(10-53) on full-length beta-catenin. For orientation: Fluorescence polarisation rises when a labelled molecule tumbles more slowly, as on binding a larger partner.
The target is the same in assay [2]. Description: fluorescence polarization competition; full-length beta-catenin, competitor 5FAM-TCF4(10-53).
The target is the same in assay [3]. Description: fluorescence polarization competition; 10 nM full-length beta-catenin + 10 nM 5FAM-TCF4(10-53) probe.
Target sequence in this assay (P35222 whole entry): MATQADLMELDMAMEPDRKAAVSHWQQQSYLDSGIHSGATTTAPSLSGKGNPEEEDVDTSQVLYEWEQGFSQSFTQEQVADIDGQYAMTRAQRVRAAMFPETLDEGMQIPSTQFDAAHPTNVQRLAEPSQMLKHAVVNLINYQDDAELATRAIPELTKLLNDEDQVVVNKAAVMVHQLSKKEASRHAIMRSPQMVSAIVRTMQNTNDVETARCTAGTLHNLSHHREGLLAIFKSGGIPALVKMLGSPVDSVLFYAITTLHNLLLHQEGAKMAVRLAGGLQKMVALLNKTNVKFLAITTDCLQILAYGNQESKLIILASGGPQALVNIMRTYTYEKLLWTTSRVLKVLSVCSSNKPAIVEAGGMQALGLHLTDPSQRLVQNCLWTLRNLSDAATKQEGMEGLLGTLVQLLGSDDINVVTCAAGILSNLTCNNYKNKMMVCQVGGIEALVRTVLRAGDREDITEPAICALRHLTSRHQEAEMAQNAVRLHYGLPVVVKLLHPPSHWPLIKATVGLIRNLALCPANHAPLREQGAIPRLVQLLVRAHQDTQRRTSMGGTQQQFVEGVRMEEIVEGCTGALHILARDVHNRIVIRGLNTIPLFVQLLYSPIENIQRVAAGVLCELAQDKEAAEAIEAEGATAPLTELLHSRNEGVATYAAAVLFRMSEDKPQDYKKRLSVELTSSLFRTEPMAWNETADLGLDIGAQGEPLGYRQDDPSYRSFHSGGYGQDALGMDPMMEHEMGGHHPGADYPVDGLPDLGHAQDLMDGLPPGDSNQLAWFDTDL

B1: I-1881 (peptide)
peptide: Ac-[αAllylPro]D[tBuAla][B5(30)]NTAAFN[PyrS2][3Thi][Bta]L-NH2
modifications: staple 1-4, 4-11; also: later-eluting HPLC isomer
For orientation: IC50 means the midpoint of a concentration-inhibition curve. High values mean lower potency, low ones higher potency. As for B1, the IC50 in assay [1] was found to be 743 nM.

B2: I-1883 (peptide)
peptide: Ac-[αAllylPro]D[tBuAla][B5(30)]NTAAFR[PyrS2][3Thi][Bta]Q-NH2
modifications: staple 1-4, 4-11; also: later-eluting HPLC isomer
On to B2, for which the half-maximal inhibitory concentration (IC50) in assay [1] came to 884 nM.

B3: I-1769 (peptide)
peptide: Ac-[αAllylPro]D[tBuAla][B5(4)]D[TfeGA][Lys(iPr)]AFL[PyrS2″][3Thi][Bta]V-NH2
modifications: staple 1-4, 4-11; also: -CH=CH- in each staple reduced to -CH2-CH2-
On to B3, for which the concentration for half-maximal inhibition (IC50) in assay [2] stood at 419 nM.

B4: I-956 (peptide)
peptide: Ac-[αAllylPro]D[tBuAla][B5]D[TfeGA]AAFT[PyrS2][3Thi][Bta]S-NH2
modifications: staple 1-4, 4-11; also: earlier-eluting staple isomer composition
The EC50 is the midpoint of the concentration-response curve. In the case of B4, in assay [3], the EC50 stood at 1090 nM. For the same molecule, the half-inhibitory concentration (IC50) in assay [1] was 1090 nM.

B5: I-1770 (peptide)
peptide: Ac-[αAllylPro]D[tBuAla][B5(5)]D[TfeGA][Lys(iPr)]AFT[PyrS2″][3Thi][Bta]V-NH2
modifications: staple 1-4, 4-11; also: -CH=CH- in each staple reduced to -CH2-CH2-
The molecule B5 came in with an IC50 in assay [2] of 175 nM.

B6: I-2263 (peptide)
peptide: Ac-[αAllylPro]D[tBuAla][B5(3)]D[Phe(3-COOH)]AAFL[PyrS2″][Phe(4-F)][Bta]A-NH2
modifications: staple 1-4, 4-11
In assay [2], B6 registered an IC50 of 47 nM. This IC50 lies about 3.7-fold lower than the previous one.

B7: I-2258 (peptide)
peptide: Ac-[αAllylPro][Asp(3R-OH)][tBuAla][B5(3)]D[Phe(3-COOH)]AAFL[PyrS2″][3Thi][Bta]A-NH2
modifications: staple 1-4, 4-11
In turn, B7 displayed an IC50 in assay [2] of 272 nM.

B8: I-958 (peptide)
peptide: Ac-[αAllylPro]D[tBuAla][B5]D[TfeGA]AAF[hSer][PyrS2][3Thi][Bta]S-NH2
modifications: staple 1-4, 4-11; also: earlier-eluting staple isomer composition
With B8, the EC50 in assay [3] was 606 nM. Besides, the IC50 in assay [1] was determined as 606 nM.

B9: I-2266 (peptide)
peptide: [ProSAm3]D[tBuAla][B5(3)]D[TfeGA]AAFL[PyrS2″][3Thi][Bta]Q-NH2
modifications: staple (positions not given here); staple 4-11; not fully specified (bridges)
In assay [2], B9 returned a concentration for half-maximal inhibition (IC50) of 266 nM.

B10: I-2389 (peptide)
peptide: Ac-[αAllylPro]D[tBuAla][B5(5)]D[Phe(3-COOH)]AAFL[PyrS2″][Phe(2-CF3)][Bta]QL[Ac3c]-NH2
modifications: staple 1-4, 4-11
In assay [2], B10 had a 50% inhibitory concentration (IC50) of 72 nM.

B11: I-954 (peptide)
peptide: Ac-[αAllylPro]D[tBuAla][B5]D[TfeGA]AAFS[PyrS2][3Thi][Bta]S-NH2
modifications: staple 1-4, 4-11; also: earlier-eluting staple isomer composition
As to B11, the EC50 in assay [3] was 900 nM. For the same molecule, the IC50 in assay [1] worked out at 900 nM.

B12: I-1767 (peptide)
peptide: Ac-[αAllylPro]D[tBuAla][B5(4)]D[TfeGA][Lys(iPr)]AFL[PyrS2″][3Thi][Bta]F-NH2
modifications: staple 1-4, 4-11; also: -CH=CH- in each staple reduced to -CH2-CH2-
As for B12, the half-inhibitory concentration (IC50) in assay [2] turned out to be 327 nM. This counts as sub-micromolar.

B13: I-953 (peptide)
peptide: Ac-[αAllylPro]D[tBuAla][B5]D[TfeGA]AAFN[PyrS2][3Thi][Bta]Y-NH2
modifications: staple 1-4, 4-11; also: later-eluting staple isomer composition
Take B13: the concentration giving a half-maximal response (EC50) in assay [3] came out at 1460 nM. This molecule registered an IC50 in assay [1] of 1460 nM.

B14: I-955 (peptide)
peptide: Ac-[αAllylPro]D[tBuAla][B5]D[TfeGA]AAFS[PyrS2][3Thi][Bta]S-NH2
modifications: staple 1-4, 4-11; also: later-eluting staple isomer composition
In the case of B14, in assay [3], the half-maximal effective concentration (EC50) came out at 1200 nM. The IC50 in assay [1] was 1200 nM.

B15: I-2256 (peptide)
peptide: Ac-[αAllylPro]D[tBuAla][B5(3)]D[Phe(3-COOH)]AAFL[PyrS2″][Phe(3-Ph)][2F3MeF″]Q-NH2
modifications: staple 1-4, 4-11
As for B15, in assay [2], the IC50 was found to be 8410 nM.

B16: I-2253 (peptide)
peptide: ClAc-[αAllylPro]D[tBuAla][B5(3)]D[Phe(3-COOH)]AAFL[PyrS2″][Phe(2-Cl)][Bta]A-NH2
modifications: staple 1-4, 4-11
B16 yielded an IC50 in assay [2] of 189 nM.

B17: I-959 (peptide)
peptide: Ac-[αAllylPro]D[tBuAla][B5]D[TfeGA]AAF[hSer][PyrS2][3Thi][Bta]S-NH2
modifications: staple 1-4, 4-11; also: later-eluting staple isomer composition
For the molecule B17, the concentration for a half-maximal effect (EC50) in assay [3] worked out at 881 nM. Further, the IC50 in assay [1] is 881 nM.

B18: I-1880 (peptide)
peptide: Ac-[αAllylPro]D[tBuAla][B5(30)]NTAAFN[PyrS2][3Thi][Bta]L-NH2
modifications: staple 1-4, 4-11; also: earlier-eluting HPLC isomer
In the case of B18, the half-maximal inhibitory concentration (IC50) in assay [1] was determined as 868 nM. That is a sub-micromolar value.

B19: I-1877 (peptide)
peptide: Ac-[αAllylPro]D[tBuAla][B5(5)]NTAAFN[PyrS2″][3Thi]WQ-NH2
modifications: staple 1-4, 4-11; also: separately listed staple isomer composition
The molecule B19 had an IC50 in assay [1] of 1520 nM.

B20: I-1876 (peptide)
peptide: Ac-[αAllylPro]D[tBuAla][B5(5)]NTAAFN[PyrS2″][3Thi]WQ-NH2
modifications: staple 1-4, 4-11; also: separately listed staple isomer composition
B20 had an IC50 in assay [1] of 1340 nM.

B21: I-880 (peptide)
peptide: Ac-[αAllylPro]DK(Azidoacetyl)[B5(4)]DDAAFN[PyrS2″][3Thi][Bta]Q-NH2
modifications: staple 1-4, 4-11
With B21, in assay [1], the EC50 was found to be 6 nM.

B22: I-2261 (peptide)
peptide: Ac-[αAllylPro]D[tBuAla][B5(3)]D[Phe(3-COOH)]AAFL[PyrS2″][Phe(3-F)][Bta]A-NH2
modifications: staple 1-4, 4-11
In assay [2], B22 came in with an IC50 of 34 nM.

B23: I-2267 (peptide)
peptide: [ProSAm3]D[tBuAla][B5(3)]D[TfeGA]AAFL[PyrS2″][3Thi][Bta]Q-NH2
modifications: staple (positions not given here); staple 4-11; not fully specified (bridges); also: staple double bonds reduced to -CH2-CH2-
Molecule B23 had a half-maximal inhibitory concentration (IC50) in assay [2] of 499 nM.

B24: I-1879 (peptide)
peptide: Ac-[αAllylPro]D[tBuAla][B5(30)]NTAAFN[PyrS2″][3Thi][Bta]V-NH2
modifications: staple 1-4, 4-11; also: later-eluting HPLC isomer
In turn, B24 came in with a half-inhibitory concentration (IC50) in assay [1] of 567 nM.

B25: I-952 (peptide)
peptide: Ac-[αAllylPro]D[tBuAla][B5]D[TfeGA]AAFN[PyrS2][3Thi][Bta]Y-NH2
modifications: staple 1-4, 4-11; also: earlier-eluting staple isomer composition
On to B25, for which, in assay [3], the 50% effective concentration (EC50) was 1210 nM. Further, the 50% inhibitory concentration (IC50) in assay [1] was 1210 nM.

B26: I-879 (peptide)
peptide: Ac-[αAllylPro]D[tBuAla][B5(4)]DDK(Azidoacetyl)AFN[PyrS2″][3Thi][Bta]Q-NH2
modifications: staple 1-4, 4-11
B26: the EC50 in assay [1] is 6 nM.

B27: I-878 (peptide)
peptide: Ac-[αAllylPro]D[tBuAla][B5(4)]DDAAFN[PyrS2″][3Thi][Bta]K(Azidoacetyl)-NH2
modifications: staple 1-4, 4-11
For the molecule B27, the EC50 in assay [1] was found to be 6 nM.

B28: I-1771 (peptide)
peptide: Ac-[αAllylPro]D[tBuAla][B5(4)][Asp(3,3-Me2)][TfeGA]AAFL[PyrS2″][3Thi][Bta]Q-NH2
modifications: staple 1-4, 4-11
As to B28, in assay [2], the IC50 was determined as 209 nM.

B29: I-1878 (peptide)
peptide: Ac-[αAllylPro]D[tBuAla][B5(5)]NTAAFN[PyrS2″][3Thi][Bta]V-NH2
modifications: staple 1-4, 4-11; also: separately listed staple isomer composition
Consider B29, for which, in assay [1], the IC50 was 458 nM.

B30: I-1882 (peptide)
peptide: Ac-[αAllylPro]D[tBuAla][B5(30)]NTAAFR[PyrS2][3Thi][Bta]Q-NH2
modifications: staple 1-4, 4-11; also: earlier-eluting HPLC isomer
For the molecule B30, the IC50 in assay [1] is 397 nM.

B31: I-957 (peptide)
peptide: Ac-[αAllylPro]D[tBuAla][B5]D[TfeGA]AAFT[PyrS2][3Thi][Bta]S-NH2
modifications: staple 1-4, 4-11; also: later-eluting staple isomer composition
Take B31: the EC50 in assay [3] was 1430 nM. Also, in assay [1], the half-maximal inhibitory concentration (IC50) was determined as 1430 nM.
